Experimental data published in patent publication US20040072179.
Read-outs that look alike come from different tables or passages of the source.

B1: commercially available 27 kDa NIa proteinase (GibcoBRL) (protein)
chain: GESLFKGPRDYNPISSTICHLTNESDGHTTSLYGIGFGPFIITNKHLFRRNNGTLLVQSLHGVFKVKNTTTLQQHLIDGRDMIIIRMPKDFPPFPQKLKFREPQREERICLVTTNFQTKSMSSMVSDTSCTFPSSDGIFWKHWIQTKDGQCGSPLVSTRDGFIVGIHSASNFTNTNNYFTSVPKNFMELLTNQEAQQWVSGWRLNADSVLWGGHKVFMSKPEEPFQPVKEATQLMNELVYSQ
B2: TPWT (wild type 27 kDa NIa proteinase of tobacco etch virus, C-terminal His6 tag) (protein)
chain: MAESGESLFKGPRDYNPISSTICHLTNESDGHTTSLYGIGFGPFIITNKHLFRRNNGTLLVQSLHGVFKVKNTTTLQQHLIDGRDMIIIRMPKDFPPFPQKLKFREPQREERICLVTTNFQTKSMSSMVSDTSCTFPSSDGIFWKHWIQTKDGQCGSPLVSTRDGFIVGIHSASNFTNTNNYFTSVPKNFMELLTNQEAQQWVSGWRLNADSVLWGGHKVFMSKPEEPFQPVKEATQLMNELVYSQLHHHHHH

What was measured:
[1] = test system: 17 kDa substrate containing the target cleavage site Glu-Asn-Leu-Tyr-Phe-Gln-Gly (SEQ ID NO: 5)
[2] = molecular target: 17 kDa substrate containing the target cleavage site Glu-Asn-Leu-Tyr-Phe-Gln-Gly (SEQ ID NO: 5); remark: listed apart in the source

Molecule | specific activity for substrate cleavage [1] | specific activity for substrate cleavage [2] | substrate cleavage (SDS-PAGE) [2]
TPSN (mutant 27 kDa NIa proteinase with Ser219 to Asn mutation, C-terminal His6 tag) | TPWT and TPSN have similar activity to each other and to the commercially available proteinase at all substrate concentrations tested |  | 
B1 |  | TPWT and TPSN have similar activity to each other and to the commercially available proteinase at all substrate concentrations tested | produces a ˜15 kDa peptide when cleaved with commercially available 27 kDa NIa proteinase (GibcoBRL)
B2 |  | TPWT and TPSN have similar activity to each other and to the commercially available proteinase at all substrate concentrations tested | 
